Experimental data taken from patent publication US20230147852A1 (SORRENTO THERAPEUTICS, published 2023).

Biological target: T1, Recombinant human LAG3-His (Sino Biological; catalogue No. 16498-H08H) (human, UniProt P18627 23-450)
T1 construct: also called human LAG3 His-tag protein; CD223
T1 sequence: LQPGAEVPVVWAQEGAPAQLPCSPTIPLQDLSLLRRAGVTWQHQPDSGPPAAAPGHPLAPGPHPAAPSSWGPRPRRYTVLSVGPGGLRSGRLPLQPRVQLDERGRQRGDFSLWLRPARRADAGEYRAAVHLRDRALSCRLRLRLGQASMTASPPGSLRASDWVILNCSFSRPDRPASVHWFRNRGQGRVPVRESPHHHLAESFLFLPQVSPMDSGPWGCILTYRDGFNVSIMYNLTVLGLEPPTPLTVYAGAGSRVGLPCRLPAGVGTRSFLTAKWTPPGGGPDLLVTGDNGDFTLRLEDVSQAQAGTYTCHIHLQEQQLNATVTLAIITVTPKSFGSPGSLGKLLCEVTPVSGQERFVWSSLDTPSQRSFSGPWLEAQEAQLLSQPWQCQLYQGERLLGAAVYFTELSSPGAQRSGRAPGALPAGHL
Assay: ELISA: antibody coated at 5 µg/mL, soluble human LAG3-His titrated (x-axis: Human LAG3, µg/ml), OD at 450nm

B1: 2D12-2E3-N102D (antibody, V domains shown)
VH: EVQLVESGGGLVQPGRSLRLSCVASGDGMSDYDMHWVRQAPGKGLEWVSGIGWNSGTIDYADSVKGRFIISRDNAKNSLYLQMNSLRPEDTALYYCAKEILDYSWMSVYGMDVWGQGTTVTVSS
VL: DIQMTQSPSSLSASVGDRVTITCRASQNIGTYLNWYQQSPGKAPKLLIYGASSLHSGVPSRVSGSGSGTDFTLTINTLQPEDFATYFCQQSYNTPPTFGQGTKVEIK
notes: also called anti-LAG3 antibody 2D12-2E3-N102D
For B1, the “EC50 (read off the curve)” value was roughly 0.04 µg/mL.
